# Data as given in article PMC10579300.
# Molecular target: SHP2 (UniProt P35235)
# Test: co-immunoprecipitation, Western blot
# Conditions: reference: LAIR1 wild type; sites Y251,Y281
substance,measurement,value
LAIR1 (from UniProt Q6GTX8) LAIR1 Y251/281F,binding against the reference,weaker
